Read-outs that look alike come from different tables or passages of the source. Values belong to the molecule of their own block, whether it stands above or below them.
Experiments:
Experiment in all cases: cell-based or functional assay
[1] = biological target: cation-independent mannose-6-phosphate/IGF-II receptor on GM4668 human skin fibroblasts (human) (UniProt P11717)
[2] = biological target: cation-independent mannose-6-phosphate/IGF-II receptor on GM4668 human skin fibroblasts (human) (UniProt P11717); remark: listed apart in the source
[3] = biological target: cation-independent mannose-6-phosphate/IGF-II receptor on GM4668 human skin fibroblasts (human) (UniProt P11717); remark: listed apart in the source
[4] = biological target: cation-independent mannose-6-phosphate/IGF-II receptor on GM4668 human skin fibroblasts (human) (UniProt P11717); remark: listed apart in the source

UniProt P11717, sequence (P11717 41-2491): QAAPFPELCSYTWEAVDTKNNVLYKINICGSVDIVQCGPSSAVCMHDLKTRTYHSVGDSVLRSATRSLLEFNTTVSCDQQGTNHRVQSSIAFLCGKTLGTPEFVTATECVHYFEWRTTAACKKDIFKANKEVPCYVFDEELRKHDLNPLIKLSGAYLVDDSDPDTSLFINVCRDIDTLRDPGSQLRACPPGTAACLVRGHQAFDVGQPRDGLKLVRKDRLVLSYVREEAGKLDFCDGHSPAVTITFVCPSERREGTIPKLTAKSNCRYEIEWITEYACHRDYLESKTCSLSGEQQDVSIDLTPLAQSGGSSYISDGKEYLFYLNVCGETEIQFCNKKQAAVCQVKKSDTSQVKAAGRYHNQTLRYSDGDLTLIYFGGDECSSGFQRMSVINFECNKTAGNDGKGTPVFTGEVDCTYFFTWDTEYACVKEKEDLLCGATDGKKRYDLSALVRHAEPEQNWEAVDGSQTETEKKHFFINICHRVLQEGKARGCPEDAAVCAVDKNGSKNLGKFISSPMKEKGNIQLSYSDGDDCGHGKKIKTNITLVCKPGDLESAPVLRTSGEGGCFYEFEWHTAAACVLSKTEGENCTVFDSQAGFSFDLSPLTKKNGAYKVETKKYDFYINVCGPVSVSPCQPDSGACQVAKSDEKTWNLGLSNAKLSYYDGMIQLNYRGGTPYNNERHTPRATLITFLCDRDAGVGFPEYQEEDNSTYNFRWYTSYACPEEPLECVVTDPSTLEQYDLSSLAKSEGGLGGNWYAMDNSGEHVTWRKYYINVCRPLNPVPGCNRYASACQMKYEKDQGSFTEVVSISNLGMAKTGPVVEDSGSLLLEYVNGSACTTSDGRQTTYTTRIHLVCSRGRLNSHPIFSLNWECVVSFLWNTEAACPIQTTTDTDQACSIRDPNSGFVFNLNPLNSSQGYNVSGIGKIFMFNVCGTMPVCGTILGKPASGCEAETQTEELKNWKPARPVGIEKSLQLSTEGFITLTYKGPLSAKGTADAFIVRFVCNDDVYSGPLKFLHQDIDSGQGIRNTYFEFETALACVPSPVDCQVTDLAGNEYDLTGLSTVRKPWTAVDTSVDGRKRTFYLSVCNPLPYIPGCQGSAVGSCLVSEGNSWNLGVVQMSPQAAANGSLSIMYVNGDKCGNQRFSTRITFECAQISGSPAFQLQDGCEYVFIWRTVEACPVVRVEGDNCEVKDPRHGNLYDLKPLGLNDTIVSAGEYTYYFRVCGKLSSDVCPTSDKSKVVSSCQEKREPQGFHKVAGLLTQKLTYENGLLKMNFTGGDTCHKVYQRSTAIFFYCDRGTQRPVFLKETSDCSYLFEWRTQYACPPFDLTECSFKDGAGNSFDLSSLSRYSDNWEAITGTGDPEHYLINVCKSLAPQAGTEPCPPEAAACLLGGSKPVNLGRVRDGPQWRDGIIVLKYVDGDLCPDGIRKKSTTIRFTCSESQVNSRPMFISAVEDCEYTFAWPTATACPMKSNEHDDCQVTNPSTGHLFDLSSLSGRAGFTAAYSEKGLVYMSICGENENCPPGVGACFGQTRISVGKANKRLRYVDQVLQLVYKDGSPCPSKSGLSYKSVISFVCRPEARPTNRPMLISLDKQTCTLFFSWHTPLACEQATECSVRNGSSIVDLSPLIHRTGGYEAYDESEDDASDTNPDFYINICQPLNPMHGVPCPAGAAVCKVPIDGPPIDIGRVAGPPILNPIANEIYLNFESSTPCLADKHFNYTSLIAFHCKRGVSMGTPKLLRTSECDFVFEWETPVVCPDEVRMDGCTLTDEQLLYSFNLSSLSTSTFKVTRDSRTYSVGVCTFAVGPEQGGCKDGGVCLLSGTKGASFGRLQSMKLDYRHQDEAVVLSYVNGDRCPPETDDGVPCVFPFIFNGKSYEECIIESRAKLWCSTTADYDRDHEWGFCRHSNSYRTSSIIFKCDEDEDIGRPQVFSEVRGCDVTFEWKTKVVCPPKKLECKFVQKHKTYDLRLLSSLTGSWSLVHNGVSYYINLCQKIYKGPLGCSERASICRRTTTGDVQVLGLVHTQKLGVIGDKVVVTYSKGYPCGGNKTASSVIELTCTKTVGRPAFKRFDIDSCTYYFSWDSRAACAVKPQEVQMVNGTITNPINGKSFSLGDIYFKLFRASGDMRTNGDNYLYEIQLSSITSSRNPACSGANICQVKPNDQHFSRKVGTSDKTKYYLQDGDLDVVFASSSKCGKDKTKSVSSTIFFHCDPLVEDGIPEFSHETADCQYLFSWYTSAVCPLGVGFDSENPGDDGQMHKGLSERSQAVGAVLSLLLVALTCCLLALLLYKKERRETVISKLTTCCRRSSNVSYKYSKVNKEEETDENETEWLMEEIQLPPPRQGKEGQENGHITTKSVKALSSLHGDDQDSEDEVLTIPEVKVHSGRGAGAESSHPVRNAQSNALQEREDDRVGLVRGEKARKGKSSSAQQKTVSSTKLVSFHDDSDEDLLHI

% IGF-II inhibition of uptake [2]: 75%
+IGF-II Uptake (units/mg) [2]: 1010 units/mg
Uptake (units/mg), 21 h [2]: 4080 units/mg
% IGF-II inhibition of uptake [1]: 63%
% M6P inhibition of uptake [1]: 41%
+IGF-II (units/mg), uptake with excess IGF-II [1]: 258 units/mg
+M6P (units/mg), uptake with excess M6P [1]: 412 units/mg
Uptake (units/mg), 18 h [1]: 704 units/mg
% IGF-II + M6P inhibition of uptake [3]: 100%
% IGF-II inhibition of uptake [3]: 70%
% M6P inhibition of uptake [3]: 60%
+IGF-II (units/mg), uptake with excess IGF-II [3]: 473 units/mg
+IGF-II + M6P (units/mg), uptake with both inhibitors [3]: 0 units/mg
+M6P (units/mg), uptake with 8 mM M6P [3]: 639 units/mg
Uptake (units/mg), 22.5 h [3]: 1580 units/mg
Molecule: CHO GUSΔC18-GILTΔ1-7 (from UniProt P08236 23-633)

cell-associated GILT-GUS in GM4668 fibroblasts, no competitor (units/mg lysate) [1]: > 24
cell-associated GILT-GUS in GM4668 fibroblasts, with about 100-fold molar excess of IGF-II [1]: 5.4 U
cell-associated GUS activity in GM4668 fibroblasts, relative to unmodified GUS [1]: 10 fold
Molecule: GUS-IGF-II fusion protein (GUS-GILT), Leishmania-expressed

% IGF-II inhibition of uptake [2]: 90.7%
+IGF-II Uptake (units/mg) [2]: 439 units/mg
Uptake (units/mg), 21 h [2]: 4730 units/mg
% IGF-II + M6P inhibition of uptake [3]: 99.1%
% IGF-II inhibition of uptake [3]: 86%
% M6P inhibition of uptake [3]: 60%
+IGF-II (units/mg), uptake with excess IGF-II [3]: 217 units/mg
+IGF-II + M6P (units/mg), uptake with both inhibitors [3]: 15 units/mg
+M6P (units/mg), uptake with 8 mM M6P [3]: 952 units/mg
Uptake (units/mg), 22.5 h [3]: 1590 units/mg
Molecule: HEK GUS-GILTF19S (from UniProt P08236 23-651)

% IGF-II inhibition of uptake [2]: 77%
+IGF-II Uptake (units/mg) [2]: 1210 units/mg
Uptake (units/mg), 21 h [2]: 5190 units/mg
Molecule: HEK GUSΔC18-GILTΔ1-7 (from UniProt P08236 23-633)

More lines, now with the values behind:

Molecule: CHO GUS-GILTΔ1-7 (from UniProt P08236 23-651)
% IGF-II inhibition of uptake [1]: 73%
% M6P inhibition of uptake [1]: 28%
+IGF-II (units/mg), uptake with excess IGF-II [1]: 84 units/mg
+M6P (units/mg), uptake with excess M6P [1]: 223 units/mg
Uptake (units/mg), 18 h [1]: 310 units/mg

Molecule: GILT-GUS with Δ1-7 and Y27L mutations in the IGF-II portion, Leishmania-expressed (from UniProt P08236 23-651)
cell-associated GUS activity in GM4668 fibroblasts, relative to unmodified GUS [1]: 5 fold

Molecule: HEK GUS-GILT (from UniProt P08236 23-651)
Uptake (units/mg), 21 h [2]: 1430 units/mg

Molecule: HEK GUS-GILTF19SE12K (from UniProt P08236 23-651)
% IGF-II inhibition of uptake [2]: 90.8%
+IGF-II Uptake (units/mg) [2]: 388 units/mg
Uptake (units/mg), 21 h [2]: 4230 units/mg
% IGF-II + M6P inhibition of uptake [3]: 100%
% IGF-II inhibition of uptake [3]: 98.2%
% M6P inhibition of uptake [3]: 31%
+IGF-II (units/mg), uptake with excess IGF-II [3]: 22 units/mg
+IGF-II + M6P (units/mg), uptake with both inhibitors [3]: 0 units/mg
+M6P (units/mg), uptake with 8 mM M6P [3]: 846 units/mg
Uptake (units/mg), 22.5 h [3]: 1230 units/mg

Molecule: HEK GUS-GILTY27L (from UniProt P08236 23-651)
Uptake (units/mg), 21 h [2]: 1510 units/mg

B1: CHO GUS (enzyme, UniProt P08236 23-651, looked up)
chain: LQGGMLYPQESPSRECKELDGLWSFRADFSDNRRRGFEEQWYRRPLWESGPTVDMPVPSSFNDISQDWRLRHFVGWVWYEREVILPERWTQDLRTRVVLRIGSAHSYAIVWVNGVDTLEHEGGYLPFEADISNLVQVGPLPSRLRITIAINNTLTPTTLPPGTIQYLTDTSKYPKGYFVQNTYFDFFNYAGLQRSVLLYTTPTTYIDDITVTTSVEQDSGLVNYQISVKGSNLFKLEVRLLDAENKVVANGTGTQGQLKVPGVSLWWPYLMHERPAYLYSLEVQLTAQTSLGPVSDFYTLPVGIRTVAVTKSQFLINGKPFYFHGVNKHEDADIRGKGFDWPLLVKDFNLLRWLGANAFRTSHYPYAEEVMQMCDRYGIVVIDECPGVGLALPQFFNNVSLHHHMQVMEEVVRRDKNHPAVVMWSVANEPASHLESAGYYLKMVIAHTKSLDPSRPVTFVSNSNYAADKGAPYVDVICLNSYYSWYHDYGHLELIQLQLATQFENWYKKYQKPIIQSEYGAETIAGFHQDPPLMFTEEYQKSLLEQYHLGLDQKRRKYVVGELIWNFADFMTEQSPTRVLGNKKGIFTRQRQPKSAAFLLRERYWKIANETRYPHSVAKSQCLENSLFT
% IGF-II inhibition of uptake [4]: 5%
% M6P inhibition of uptake [4]: 99.7%
% inhibition of uptake by excess IGF-II [4]: 4.5%
+IGF-II (units/mg), uptake with excess IGF-II [4]: 336 units/mg
+M6P (units/mg), uptake with excess M6P [4]: 1 units/mg
Uptake (units/mg), 18 h [4]: 352 units/mg

— US20090029467A1
